Data from patent publication US20220144961A1 (XYENCE THERAPEUTICS, published 2022).
Residue numbers refer to the chain shown, from its start.

Legend:
[1] = biological target: T1, human CD27 (human, UniProt P26842 21-192, limits assumed); assay: screen of individual clones, heat map of log (Binding MFI), human CD27 at 25 nM
T1 construct: The construct (soluble form, tags) is not described; also called TNFRSF7

[2] = biological target: T1, human CD27; assay: Kd table for the mAb titration on human CD27 (OD readout, Figure 4 A); method not given
[3] = biological target: T2, mouse CD27 (mouse, UniProt P41272 24-182, limits assumed); assay: Kd table for the mAb titration on mouse CD27 (OD readout, Figure 4 B); method not given
T2 construct: The construct is not described; also called murine CD27
T2 sequence (looked up): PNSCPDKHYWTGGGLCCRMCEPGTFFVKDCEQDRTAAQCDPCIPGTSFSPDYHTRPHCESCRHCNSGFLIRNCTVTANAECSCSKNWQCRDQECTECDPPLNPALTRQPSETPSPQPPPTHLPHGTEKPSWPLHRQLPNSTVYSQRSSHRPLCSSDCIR

[4] = biological target: T1, human CD27; assay: mAb titration on human CD27, OD readout
[5] = biological target: T2, mouse CD27; assay: screen of individual clones, heat map of log (Binding MFI), mouse CD27 at 25 nM

T1 sequence (P26842 21-192 limits assumed): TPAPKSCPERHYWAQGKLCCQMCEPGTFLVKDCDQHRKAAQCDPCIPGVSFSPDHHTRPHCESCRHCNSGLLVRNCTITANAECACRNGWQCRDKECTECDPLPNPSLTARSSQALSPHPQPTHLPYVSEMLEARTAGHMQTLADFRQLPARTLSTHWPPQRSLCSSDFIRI

B1: TP14 (antibody, V domains shown)
VH: QVQLVQSGAEVKKPGASVKVSCKASGYTFTSYYMHWVRQAPGQGLEWMGIINPSGGSTSYAQKFQGRVTMTRDTSTSTVYMELSSLRSEDTAVYYCARYDHAGGTPFDLWGQGTLVTVSS
VL: QSVLTQPPSVSAAPGQKVTISCSGSSSNIGNNYVSWYQQLPGTAPKLLIYGNSNRPSGVPDRFSGSKSGTSASLAITGLQAEDEADYYCQSYDSSLSGYVFGTGTKVTVL
notes: Clone of the screen
B1: binds [1].

B2: TP21 (antibody, V domains shown)
VH: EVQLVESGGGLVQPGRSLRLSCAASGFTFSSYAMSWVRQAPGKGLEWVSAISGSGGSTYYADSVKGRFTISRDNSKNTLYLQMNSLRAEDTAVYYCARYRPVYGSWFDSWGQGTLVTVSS
VL: QSVVTQPPSVSGAPGQRVTISCTGSSSNIGAGYDVHWYQQLPGTAPKLLIYGNSNRPSGVPDRFSGSKSGTSASLAITGLQAEDEADYYCQSYDSSLSGYVFGTGTKVTVL
notes: Clone of the screen
B2: binds [1].

B3: TP23 (antibody, V domains shown)
VH: QVQLVQSGAEVKKPGASVKVSCKASGYTFTSYGISWVRQAPGQGLEWMGWISAYNGNTNYAQKLQGRVTMTTDTSTSTAYMELRSLRSDDTAVYYCARGGAGHYDYFDYWGQGTLVTVSS
VL: B2 VL
Work on B3 yielded a Kd [2] of 5 nM and a Kd [3] of 40 nM.

B4: TP25 (antibody, V domains shown)
VH: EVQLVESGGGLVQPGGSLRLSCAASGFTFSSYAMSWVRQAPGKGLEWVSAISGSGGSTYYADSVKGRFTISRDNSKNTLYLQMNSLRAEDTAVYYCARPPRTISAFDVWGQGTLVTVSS
VL: B2 VL
B4 was tested, and the Kd [2] was 0.1 nM and the “EC50 (read off the curve)” value [4] was about 0.1 nM.

B5: TP22 (antibody, V domains shown)
VH: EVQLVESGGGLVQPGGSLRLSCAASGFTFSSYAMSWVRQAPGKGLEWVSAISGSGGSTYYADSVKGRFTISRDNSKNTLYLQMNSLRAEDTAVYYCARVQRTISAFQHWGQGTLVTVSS
VL: B2 VL
notes: Clone of the screen
B5: binds [1]; binds [5].

B6: TP29 (antibody, V domains shown)
VH: EVQLVESGGGVVQPGRSLRLSCAASGFTFSNAWMSWVRQAPGKGLEWVSAISGSGGSTYYADSVKGRFTISRDNSKNTLYLQMNSLRAEDTAVYYCARRALSLSYFDYWGQGTLVTVSS
VL: B2 VL
Binder B6 has a Kd [2] of 0.3 nM and a Kd [3] of 0.7 nM.

B7: TP28 (antibody, V domains shown)
VH: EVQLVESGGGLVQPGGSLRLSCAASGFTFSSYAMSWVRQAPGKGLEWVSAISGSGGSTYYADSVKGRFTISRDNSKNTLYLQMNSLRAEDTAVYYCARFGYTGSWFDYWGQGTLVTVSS
VL: B2 VL with N53K
notes: Clone of the screen
B7: binds [1].

B8: TP31 (antibody, V domains shown)
VH: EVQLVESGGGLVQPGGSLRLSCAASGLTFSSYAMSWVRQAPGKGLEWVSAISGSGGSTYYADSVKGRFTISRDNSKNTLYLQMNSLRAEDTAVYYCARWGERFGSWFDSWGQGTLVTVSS
VL: B2 VL
In the case of B8, the Kd [2] is reported as 1.4 nM.

B9: TP17 (antibody, V domains shown)
VH: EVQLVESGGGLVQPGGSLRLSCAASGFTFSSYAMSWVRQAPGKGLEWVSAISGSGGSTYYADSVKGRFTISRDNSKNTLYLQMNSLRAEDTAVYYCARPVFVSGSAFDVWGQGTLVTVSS
VL: B2 VL
notes: Clone of the screen
B9: binds [1].

B10: TP6 (antibody, V domains shown)
VH: QVQLVESGGGVVQPGRSLRLSCAASGFTFSSYAMHWVRQAPGKGLEWVAVISYDGSNKYYADSVKGRFTISRDNSKNTLYLQMNSLRAEDTAVYYCARGYQGGYSNFDLWGQGTLVTVSS
VL: DIQMTQSPSTLSASVGDRVTITCRASQSISSWLAWYQQKPGKAPKLLIYDASSLESGVPSRFSGSGSGTDFTLTISSLQPEDFATYYCQQSYSTPYTFGQGTKLEIK
notes: also called TP06
In the case of B10, the Kd [2] is reported as 0.6 nM, the “EC50 (read off the curve)” value [4] is reported as about 0.3 nM and the Kd [3] is reported as 8 nM.

B11: TP9 (antibody, V domains shown)
VH: B10 VH with G99A, Y100V, Q101P, G102Y, G103V, S105Y, N106G, F107M, L109V
VL: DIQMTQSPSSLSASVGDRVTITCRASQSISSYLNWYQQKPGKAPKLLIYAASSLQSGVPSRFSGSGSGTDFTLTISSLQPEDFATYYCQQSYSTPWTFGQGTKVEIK
notes: Clone of the screen; also called TP09
B11: binds [1].

B12: TP5 (antibody, V domains shown)
VH: QVQLVESGGGVVQPGRSLRLSCAASGFTFSSYAMHWVRQAPGKGLEWVAVISYDGSNKYYADSVKGRFTISRDNSKNTLYLQMNSLRAEDTAVYYCARVFYGYAPFDVWGQGTLVTVSS
VL: B10 VL with D70E, E81D
notes: Clone of the screen; also called TP05
B12: binds [1].

B13: TP11 (antibody, V domains shown)
VH: QVQLVESGGGVVQPGRSLRLSCAASGFTFSSYAMHWVRQAPGKGLEWVAVISYDGSNKYYADSVKGRFTISRDNSKNTLYLQMNSLRAEDTAVYYCARGVSGSYARGFDVWGQGTLVTVSS
VL: B10 VL with D70E, Y96W, L104V
With B13 the Kd [2] was 0.2 nM and the Kd [3] was 0.5 nM.

B14: TP1 (antibody, V domains shown)
VH: QVQLVESGGGVVQPGRSLRLSCAASGFTFSSYAMHWVRQAPGKGLEWVAVISYDGSNKYYADSVKGRFTISRDNSKNTLYLQMNSLRAEDTAVYYCARAGSSGYAYYGMDVWGQGTLVTVSS
VL: not shown
notes: Clone of the screen; also called TP01
B14: binds [1].

B15: TP10 (antibody, V domains shown)
VH: QVQLVESGGGVVQPGRSLRLSCAASGFTFSSYAMHWVRQAPGKGLEWVAVISYDGSNKYYADSVKGRFTISRDNSKNTLYLQMNSLRAEDTAVYYCARSGRATSYSYYGMDVWGQGTLVTVSS
VL: not shown
In the case of B15, the Kd [2] is reported as 0.4 nM and the Kd [3] is reported as 0.9 nM.

B16: TP15 (antibody, V domains shown)
VH: B3 VH with T74E, R84S, D89E
VL: QSVLTQPPSVSAAPGQKVTISCSGSSSNIGNNYVSWYQQLPGTAPKLLIYDNNKRPSGIPDRFSGSNSGNTATLTISGTQAMDEADYYCQAWDSSTAWVFGGGTKLTVL
notes: Clone of the screen
B16: binds [1].

B17: TP24 (antibody, V domains shown)
VH: B12 VH with V99P, F100V, Y101R, G102T, Y103I, A104S, P105A
VL: QSVVTQPPSVSGAPGQRVTISCTGSSSNIGAGYDVHWYQQLPGTAPKLLIYGNSNRPSGVPDRFSGSKSGTSASLAITGLQAEDEADYYCGTWDSSLSAGYVFGTGTKVTVL
notes: Clone of the screen
B17: binds [1].
